The record followed here is the Human Domainome abundance scans (Beltran et al. 2025).

± gives the uncertainty stated by the source.

First the molecules themselves.
B1: Segment polarity protein dishevelled homolog DVL-3, residues 2 to 81; numbered along this chain, Q92997 (parent)
chain: GETKIIYHLDGQETPYLVKLPLPAERVTLADFKGVLQRPSYKFFFKSMDDDFGVVKEEISDDNAKLPCFNGRVVSWLVSA

This data set covers variants of B1. Put plainly: abundance fitness (aPCA) (normalised: wild type 0, dead -1); higher = more abundant; growth selection in yeast, the domain comes from the species named. The conditions noted are these: Homo sapiens.
Turning to GETKIIYHLDGQETPYLVKLALPAERVTLADFKGVLQRPSYKFFFKSMDDDFGVVKEEISDDNAKLPCFNGRVVSWLVSA, the abundance fitness is -0.169 ± 0.057.
For the variant GETKIIYHLDGQETPYLVKCPLPAERVTLADFKGVLQRPSYKFFFKSMDDDFGVVKEEISDDNAKLPCFNGRVVSWLVSA, the abundance fitness was -0.632 ± 0.13.
The result for GETKIIYHLDGQETPYLVKWPLPAERVTLADFKGVLQRPSYKFFFKSMDDDFGVVKEEISDDNAKLPCFNGRVVSWLVSA reads -0.472 ± 0.069; that for GETKIIYHLDGQETPYLVKDPLPAERVTLADFKGVLQRPSYKFFFKSMDDDFGVVKEEISDDNAKLPCFNGRVVSWLVSA, -0.68 ± 0.14.
GETKIIYHLDGQETPYLVKIPLPAERVTLADFKGVLQRPSYKFFFKSMDDDFGVVKEEISDDNAKLPCFNGRVVSWLVSA: the abundance fitness is 0.101 ± 0.089.
The result for GETKIIYHLDGQETPYLVKEPLPAERVTLADFKGVLQRPSYKFFFKSMDDDFGVVKEEISDDNAKLPCFNGRVVSWLVSA reads -0.615 ± 0.092.
GETKIIYHLDGQETPYLVKTPLPAERVTLADFKGVLQRPSYKFFFKSMDDDFGVVKEEISDDNAKLPCFNGRVVSWLVSA: the abundance fitness is -0.836 ± 0.17.
The result for GETKIIYHLDGQETPYLVKQPLPAERVTLADFKGVLQRPSYKFFFKSMDDDFGVVKEEISDDNAKLPCFNGRVVSWLVSA reads -1.09 ± 0.24; that for GETKIIYHLDGQETPYLVKSPLPAERVTLADFKGVLQRPSYKFFFKSMDDDFGVVKEEISDDNAKLPCFNGRVVSWLVSA, -0.664 ± 0.094.
The result for GETKIIYHLDGQETPYLVKMPLPAERVTLADFKGVLQRPSYKFFFKSMDDDFGVVKEEISDDNAKLPCFNGRVVSWLVSA reads -0.679 ± 0.13; that for GETKIIYHLDGQETPYLVKVPLPAERVTLADFKGVLQRPSYKFFFKSMDDDFGVVKEEISDDNAKLPCFNGRVVSWLVSA, 0.104 ± 0.043.
The result for GETKIIYHLDGQETPYLVKAPLPAERVTLADFKGVLQRPSYKFFFKSMDDDFGVVKEEISDDNAKLPCFNGRVVSWLVSA reads -1.06 ± 0.14; that for GETKIIYHLDGQETPYLVKFPLPAERVTLADFKGVLQRPSYKFFFKSMDDDFGVVKEEISDDNAKLPCFNGRVVSWLVSA, -0.336 ± 0.16.
GETKIIYHLDGQETPYLVKKPLPAERVTLADFKGVLQRPSYKFFFKSMDDDFGVVKEEISDDNAKLPCFNGRVVSWLVSA: the abundance fitness is -0.666 ± 0.13.
In the case of GETKIIYHLDGQETPYLVKRPLPAERVTLADFKGVLQRPSYKFFFKSMDDDFGVVKEEISDDNAKLPCFNGRVVSWLVSA, the abundance fitness is -0.779 ± 0.077.
For GETKIIYHLDGQETPYLVKPPLPAERVTLADFKGVLQRPSYKFFFKSMDDDFGVVKEEISDDNAKLPCFNGRVVSWLVSA, the abundance fitness is -0.954 ± 0.18.
The result for GETKIIYHLDGQETPYLVKGPLPAERVTLADFKGVLQRPSYKFFFKSMDDDFGVVKEEISDDNAKLPCFNGRVVSWLVSA reads -0.625 ± 0.059.
The result for GETKIIYHLDGQETPYLVPLPLPAERVTLADFKGVLQRPSYKFFFKSMDDDFGVVKEEISDDNAKLPCFNGRVVSWLVSA reads -0.797 ± 0.13; that for GETKIIYHLDGQETPYLVVLPLPAERVTLADFKGVLQRPSYKFFFKSMDDDFGVVKEEISDDNAKLPCFNGRVVSWLVSA, 0.383 ± 0.043.
The result for GETKIIYHLDGQETPYLVQLPLPAERVTLADFKGVLQRPSYKFFFKSMDDDFGVVKEEISDDNAKLPCFNGRVVSWLVSA reads -0.297 ± 0.084.
In the case of GETKIIYHLDGQETPYLVYLPLPAERVTLADFKGVLQRPSYKFFFKSMDDDFGVVKEEISDDNAKLPCFNGRVVSWLVSA, the abundance fitness is -0.154 ± 0.11.
The result for GETKIIYHLDGQETPYLVTLPLPAERVTLADFKGVLQRPSYKFFFKSMDDDFGVVKEEISDDNAKLPCFNGRVVSWLVSA reads 0.271 ± 0.054; that for GETKIIYHLDGQETPYLVELPLPAERVTLADFKGVLQRPSYKFFFKSMDDDFGVVKEEISDDNAKLPCFNGRVVSWLVSA, -0.034 ± 0.062.
Regarding GETKIIYHLDGQETPYLVDLPLPAERVTLADFKGVLQRPSYKFFFKSMDDDFGVVKEEISDDNAKLPCFNGRVVSWLVSA, the abundance fitness is -0.547 ± 0.15.
For GETKIIYHLDGQETPYLVHLPLPAERVTLADFKGVLQRPSYKFFFKSMDDDFGVVKEEISDDNAKLPCFNGRVVSWLVSA, the abundance fitness is -0.07 ± 0.1.
With GETKIIYHLDGQETPYLVILPLPAERVTLADFKGVLQRPSYKFFFKSMDDDFGVVKEEISDDNAKLPCFNGRVVSWLVSA, the abundance fitness came to 0.314 ± 0.073.
The result for GETKIIYHLDGQETPYLVCLPLPAERVTLADFKGVLQRPSYKFFFKSMDDDFGVVKEEISDDNAKLPCFNGRVVSWLVSA reads -0.024 ± 0.073; that for GETKIIYHLDGQETPYLVMLPLPAERVTLADFKGVLQRPSYKFFFKSMDDDFGVVKEEISDDNAKLPCFNGRVVSWLVSA, 0.058 ± 0.066.
Take GETKIIYHLDGQETPYLVGLPLPAERVTLADFKGVLQRPSYKFFFKSMDDDFGVVKEEISDDNAKLPCFNGRVVSWLVSA: the abundance fitness is -0.635 ± 0.069.
GETKIIYHLDGQETPYLVWLPLPAERVTLADFKGVLQRPSYKFFFKSMDDDFGVVKEEISDDNAKLPCFNGRVVSWLVSA: the abundance fitness was -0.357 ± 0.073.
The result for GETKIIYHLDGQETPYLVNLPLPAERVTLADFKGVLQRPSYKFFFKSMDDDFGVVKEEISDDNAKLPCFNGRVVSWLVSA reads -0.133 ± 0.097.
For GETKIIYHLDGQETPYLVRLPLPAERVTLADFKGVLQRPSYKFFFKSMDDDFGVVKEEISDDNAKLPCFNGRVVSWLVSA, the abundance fitness is -0.132 ± 0.046.
The result for GETKIIYHLDGQETPYLVALPLPAERVTLADFKGVLQRPSYKFFFKSMDDDFGVVKEEISDDNAKLPCFNGRVVSWLVSA reads -0.143 ± 0.059.
The result for GETKIIYHLDGQETPYLVFLPLPAERVTLADFKGVLQRPSYKFFFKSMDDDFGVVKEEISDDNAKLPCFNGRVVSWLVSA reads -0.215 ± 0.12; that for GETKIIYHLDGQETPYLVSLPLPAERVTLADFKGVLQRPSYKFFFKSMDDDFGVVKEEISDDNAKLPCFNGRVVSWLVSA, 0.157 ± 0.05.
